Reference: patent US20230063794A1, “STAPLED TRIAZOLE CO-AGONISTS OF THE GLUCAGON AND GLP-1 RECEPTORS” (Merck Sharp & Dohme LLC, priority 2019, published 2023)
Starred links: 1 amine or outer side, 2 acyl side, 3 side chain; linkers in the order of their positions; H or OH if unused. Positions of bridges follow the written chain, without caps; N, C: chain ends. Non-standard residues stand in square brackets, D forms with d. Groups on a side chain read outwards from the residue. No end group written: not given here. *: point of attachment. Peg3N3Ala = O-(2-(2-(2-azidoethoxy)ethoxy)ethyl)-L-serine, [N-]=[N+]=NCCOCCOCCOC[C@H](N[*:1])C(=O)[*:2]; Lys(N3) = [N-]=[N+]=NCCCC[C@H](N)C(=O)O; γGlu = O=C(O)[C@H](CCC(=O)[*:2])N[*:1]; Met(O2) = CS(=O)(=O)CC[C@H](N)C(=O)O; Palmitoyl = CCCCCCCCCCCCCCCC(=O)*; dPra = C#CC[C@@H](N)C(=O)O; Nle = CCCC[C@H](N)C(=O)O; Ac4c = NC1(C(=O)O)CCC1; Aib = CC(C)(N)C(=O)O

B1: TP531 (peptide)
peptide: HXQGTFTSDKSKYLDERAAXDFVXWLLDT
modifications: D-Ser at 2; pra at 20 and Nle(εN3) at 24 cyclized to a triazole containing ring; C-terminal amide
B2: TP862 (peptide)
peptide: H[Aib]QGTFTSDKSKYLD[Ac4c]RAAQDFV[dPra]WL[Met(O2)][Lys(N3)]TK-{γGlu-NH2}
modifications: triazole 24-28; not fully specified (residue 10); printed as HUQGTFTSDK(γEγEC16)SKYLDAcbRAAQDFVpra*WL2Nle(ϵN3)*T / KγE-NH2
B3: TP487 (peptide)
peptide: HXQGTFTSDXSKYLDERAAXDFVXWLLDT
modifications: D-Ser at 2; Lys 10 conjugated to γEγE-C16 fatty acid; Nle(εN3) at 20 and pra at 24 cyclized to a triazole containing ring; C-terminal amide
B4: TP835 (peptide)
peptide: HXQGTFTSDXSKYLDARAAQDFVXWLLXT
modifications: D-Ser at 2; Lys 10 conjugated to γEγE-C16 fatty acid; pra at 24 and Nle(εN3) at 28 cyclized to a triazole containing ring; C-terminal amide
B5: TP530 (peptide)
peptide: HXQGTFTSDKSKYLDERAAXDFVXWLLDT
modifications: D-Ser at 2; Nle(εN3) at 20 and pra at 24 cyclized to a triazole containing ring; C-terminal amide
B6: TP852 (peptide)
peptide: HXQGTFTSDXSKYLDARAAQDFVXWLLXT
modifications: D-Ser at 2; Lys 10 conjugated to γEγE-C16 fatty acid; Nle(εN3) at 24 and pra at 28 cyclized to a triazole containing ring; C-terminal amide
B7: TP488 (peptide)
peptide: HXQGTFTSDXSKYLDERAAXDFVXWLLDT
modifications: D-Ser at 2; Lys 10 conjugated to γEγE-C16 fatty acid; pra at 20 and Nle(εN3) at 24 cyclized to a triazole containing ring; C-terminal amide

Legend:
[1] = target: human Glucagon receptor (GCGR) (human, UniProt P47871 26-477); experiment: cell-based or functional assay
Sequence of human Glucagon receptor (GCGR) (P47871 26-477): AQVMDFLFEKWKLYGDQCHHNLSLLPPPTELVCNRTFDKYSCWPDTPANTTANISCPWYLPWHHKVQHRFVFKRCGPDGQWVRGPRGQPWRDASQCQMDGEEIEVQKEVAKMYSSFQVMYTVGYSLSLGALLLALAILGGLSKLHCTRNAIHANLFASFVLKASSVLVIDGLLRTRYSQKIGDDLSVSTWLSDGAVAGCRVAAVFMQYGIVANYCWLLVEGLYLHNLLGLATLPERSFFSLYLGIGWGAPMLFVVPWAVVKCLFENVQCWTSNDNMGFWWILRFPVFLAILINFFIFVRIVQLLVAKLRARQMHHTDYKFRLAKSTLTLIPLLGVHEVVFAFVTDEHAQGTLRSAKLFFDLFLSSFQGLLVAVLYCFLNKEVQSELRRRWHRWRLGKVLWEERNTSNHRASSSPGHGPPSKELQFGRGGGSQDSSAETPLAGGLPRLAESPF

[2] = target: human GLP-1 receptor (GLP1R) (human, UniProt P43220 24-463); experiment: cell-based or functional assay

Row | Binder | GCGR EC50 human (nM), cAMP activity assay [1] [nM] | GLP1R EC50 human (nM), cAMP activity assay [2] [nM]
1 | H[Aib]QGTFTSDK([γGlu-γGlu-Palmitoyl])SKYLD[Aib]RAA[dPra]DFV[Lys(N3)]WL[Met(O2)]DTK-{γGlu-NH2} (triazole 20-24) [TP847] | 0.107 | 0.024
2 | B1 | 0.323 | 0.168
3 | H[Aib]QGTFTSDK([γGlu-γGlu-Palmitoyl])SKYLD[Ac4c][dPra]AAQ[Lys(N3)]FVQWL[Met(O2)]DTK-{γGlu-NH2} (triazole 17-21) [TP858] | 0.064 | 0.042
4 | H[dS]QGTFTSDK([γGlu-γGlu-Palmitoyl])SKYLDA[dPra]AAQ[Lys(N3)]FVQWLLDT-NH2 (triazole 17-21) [TP733] | 0.279 | 0.54
5 | H[dS]QGTFTSDK([γGlu-γGlu-Palmitoyl])SKYLDA[dPra]AAQDFV[Peg3N3Ala]WLLDT-NH2 (triazole 17-24) [TP920] | 0.115 | 0.416
6 | H[Aib]QGTFTSDK([γGlu-γGlu-Palmitoyl])SKYLD[Aib][dPra]AAQ[Lys(N3)]FVQWL[Nle]DT-NH2 (triazole 17-21) [TP841] | 0.819 | 0.414
7 | H[Aib]QGTFTSDKSKYLD[Aib]RAAQDFV[dPra]WLM[Lys(N3)]TK-{γGlu-NH2} (triazole 24-28; also: lower-case v at 23 not defined) [TP533] | 5 | 3.11
8 | B2 | 0.139 | 0.042
9 | B3 | 0.09 | 0.22
10 | H[Aib]QGTFTSDK([γGlu-γGlu-Palmitoyl])SKYLD[dPra]RAA[Lys(N3)]DFVQWL[Met(O2)]DTK-{γGlu-NH2} (triazole 16-20) [TP845] | 0.134 | 0.027
11 | B4 | 0.143 | 0.199
12 | B5 | 0.06 | 0.03
13 | H[dS]QGTFTSDK([γGlu-γGlu-Palmitoyl])SKYLD[dPra]RAA[Lys(N3)]DFVQWLLDT-NH2 (triazole 16-20) [TP731] | 0.03 | 0.034
14 | H[Aib]QGTFTSDK([γGlu-γGlu-Palmitoyl])SKYLD[Aib]RAAQDFV[dPra]WL[Met(O2)][Lys(N3)]TK-{γGlu-NH2} (triazole 24-28) [TP851] | 0.109 | 0.025
15 | H[Aib]QGTFTSDK([γGlu-γGlu-Palmitoyl])SKYLD[Ac4c]RAA[dPra]DFV[Lys(N3)]WL[Met(O2)]DTK-{γGlu-NH2} (triazole 20-24) [TP860] | 0.077 | 0.042
16 | B6 | 0.059 | 0.109
17 | H[Aib]QGTFTSDK([γGlu-γGlu-Palmitoyl])SKYLD[Aib][dPra]AAQ[Lys(N3)]FVQWL[Met(O2)]DTK-{γGlu-NH2} (triazole 17-21) [TP849] | 0.25 | 0.041
18 | B7 | 0.04 | 0.042
19 | H[dS]QGTFTSDK([γGlu-γGlu-Palmitoyl])SKYLDARAA[dPra]DFV[Lys(N3)]WLLDT-NH2 (triazole 20-24) [TP732] | 0.052 | 0.123
20 | H[Aib]QGTFTSDK([γGlu-γGlu-Palmitoyl])SKYLD[dPra]RAA[Lys(N3)]DFVQWL[Nle]DT-NH2 (triazole 16-20) [TP837] | 0.048 | 0.042
21 | H[Aib]QGTFTSDKSKYLD[Aib]RAAQDFV[Lys(N3)]WLM[dPra]TK-{γGlu-NH2} (triazole 24-28) [TP532] | 1.07 | 0.14
